The values below come from US20190336496A1, “SELECTIVE BCL-2 INHIBITORS IN COMBINATION WITH AN ANTI-PD-1 OR AN ANTI-PD-L1 ANTIBODY FOR THE TREATMENT OF CANCERS” (AbbVie Inc., priority 2018, published 2019).

The experiment deals with CT26 tumors. The experiment in a line: CT26 mouse colon carcinoma syngeneic model. The experiment is classed as in vivo. The conditions noted are these: CT26; groups of 10 mice; CR = tumor volume ≤25 mm^3 over at least 3 successive measurements.

Where “and” joins values, the source holds several entries; their conditions need not be identical. Identical values can stand only once.

Method: BALB/c, C57BL/6, CB6F1 (C57BL/6 bred with BALB/c) and SCID mice were obtained from Charles River (Wilmington, Mass.).
EMT6, mouse mammary carcinoma and CT26, mouse colon carcinoma, cell lines were obtained from ATCC (Manassas, Va.).
Compound (I),venetoclax, was formulated in 10% ethanol+30% PEG 400+60% Phosal® 50PG. Venetoclax was administered orally once a day for 14 days at 50 mg/kg/day.
1×10^5 CT26, EMT6 or MC38 cells were subcutaneously injected with Matrigel into the flanks of BALB/c, CB6F1 or C57BL/6 mice, respectively. Seven days later, mice were randomized to treatment groups of vehicle, venetoclax, anti-PD-1/PD-L1 or the combination of venetoclax and anti-PD-1/PD-L1. Tumor volume was determined via measurements of the length (L) and width (W) of the tumor with electronic calipers and the volume was calculated according to the following equation: V=L×W2/2 using Study Director Version 2.1.11 (Studylog Systems Inc., South San Francisco). Complete response (CR) was defined as reduction in tumor volume to ≤25 mm^3 over at least 3 successive measurements.

B1: anti mu PD1 (17D2 murinized, VH2xVL1x)[mu IgG2a/k] DANA: Mouse anti-PD-1 antibody, heavy chain SEQ ID NO: 3, light chain SEQ ID NO: 4 (antibody)
heavy: QVTLKESGPGILQSSQTLSLTCTFSGFSLSTYGMGVGWIRQPSGKGLEWLTNIWWDDDKYYNSSLKNRLTVSKDTANNQVFLKFTSVDIADTATYYCGRMEWGGSFDYWGQGIMVTVSSAKTTAPSVYPLAPVCGDTTGSSVTLGCLVKGYFPEPVTLTWNSGSLSSGVHTFPAVLQSDLYTLSSSVTVTSSTWPSQSITCNVAHPASSTKVDKKIEPRGPTIKPCPPCKCPAPNLLGGPSVFIFPPKIKDVLMISLSPIVTCVVVAVSEDDPDVQISWFVNNVEVHTAQTQTHREDYASTLRVVSALPIQHQDWMSGKEFKCKVNNKDLPAPIERTISKPKGSVRAPQVYVLPPPEEEMTKKQVTLTCMVTDFMPEDIYVEWTNNGKTELNYKNTEPVLDSDGSYFMYSKLRVEKKNWVERNSYSCSVVHEGLHNHHTTKSFSRTPGK
light: DIVMTQTPVSLSVSLGGQVSISCRSSQSLEHRNGITFLSWYLQKPGQSPQLLIYKVSNRFSGISDRFSGRGSGTDFVLQINRVEPDDLGVYYCGQGTHYPLTFGSGTKLEIKRADAAPTVSIFPPSSEQLTSGGASVVCFLNNFYPKDINVKWKIDGSERQNGVLNSWTDQDSKDSTYSMSSTLTLTKDEYERHNSYTCEATHKTSTSPIVKSFNRNEC
On to B1, for which the “complete responses (CR)” value was “did not lead to any complete responses and 0/10”.
